Data from patent US20090061015.
Numbering of substitutions follows the chain as printed. Numbers in names are those of the source.

Experiments:
[1] = biological target: T1, recombinant human AceCS2^myc-His (residues 38-689, C-terminal myc-His tag, purified from E. coli), acetylated at Lys642 (UniProt Q9NUB1)
T1 sequence: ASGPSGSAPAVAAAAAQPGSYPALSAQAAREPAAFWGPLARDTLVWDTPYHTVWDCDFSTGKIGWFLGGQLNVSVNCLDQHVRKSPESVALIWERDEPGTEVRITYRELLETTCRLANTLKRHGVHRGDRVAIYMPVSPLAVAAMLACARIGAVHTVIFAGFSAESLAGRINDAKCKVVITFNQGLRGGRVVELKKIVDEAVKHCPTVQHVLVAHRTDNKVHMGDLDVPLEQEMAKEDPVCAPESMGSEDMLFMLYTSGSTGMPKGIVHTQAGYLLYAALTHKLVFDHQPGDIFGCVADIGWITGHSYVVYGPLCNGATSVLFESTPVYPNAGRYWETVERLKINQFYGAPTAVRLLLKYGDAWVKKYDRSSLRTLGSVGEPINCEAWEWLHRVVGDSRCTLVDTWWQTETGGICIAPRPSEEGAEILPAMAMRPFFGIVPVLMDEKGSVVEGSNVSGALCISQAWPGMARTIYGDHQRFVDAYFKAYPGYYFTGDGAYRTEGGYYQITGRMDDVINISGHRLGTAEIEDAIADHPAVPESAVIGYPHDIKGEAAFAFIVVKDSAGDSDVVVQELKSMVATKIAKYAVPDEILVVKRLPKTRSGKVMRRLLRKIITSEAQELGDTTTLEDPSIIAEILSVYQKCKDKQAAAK

[2] = biological target: T2, recombinant human AceCS2^myc-His (residues 38-689, C-terminal myc-His tag, purified from E. coli), acetylated at Lys642, Q9NUB1
T2 chain: T1 sequence

## recombinant human SIRT5 lacking the first 38 residues (residues 39-310, myc-His tagged)
[1]
  in vitro deacetylation of AceCS2 (immunoblot with acetyl-lysine-specific antibodies): both recombinant SIRT5 proteins failed to do so

## recombinant human SIRT5 lacking the first 11 residues (residues 12-310, myc-His tagged)
[1]
  in vitro deacetylation of AceCS2 (immunoblot with acetyl-lysine-specific antibodies): both recombinant SIRT5 proteins failed to do so

B1: recombinant human SIRT3 (residues 102-399, myc-His tagged, purified from E. coli) (protein)
chain: ISFSVGASSVVGSGGSSDKGKLSLQDVAELIRARACQRVVVMVGAGISTPSGIPDFRSPGSGLYSNLQQYDLPYPEAIFELPFFFHNPKPFFTLAKELYPGNYKPNVTHYFLRLLHDKGLLLRLYTQNIDGLERVSGIPASKLVEAHGTFASATCTVCQRPFPGEDIRADVMADRVPRCPVCTGVVKPDIVFFGEPLPQRFLLHVVDFPMADLLLILGTSLEVEPFASLTEAVRSSVPRLLINRDLVGPLAWHPRSRDVAQLGDVVHGVESLVELLGWTEEMRDLVQRETGKLDGPDK
[2]
  acetyl-CoA synthetase specific activity of AceCS2 after incubation with SIRT3: deacetylation by SIRT3 was associated with a significant increase in enzymatic activity
  in vitro deacetylation of AceCS2 (immunoblot with acetyl-lysine-specific antibodies): recombinant SIRT3 effectively deacetylated AceCS2
  in vitro deacetylation of hyperacetylated AceCS2 with NAD^+: This treatment led to a complete deacetylation of AceCS2
  time course of AceCS2 deacetylation and of its enzymatic activity: incubation of AceCS2 with SIRT3 and NAD^+ caused a progressive deacetylation of AceCS2 over time

B2: recombinant human SIRT3-H248Y (residues 102-399, myc-His tagged, purified from E. coli), catalytically inactive mutant (protein)
chain: B1 chain with H147Y
[2]
  in vitro deacetylation of AceCS2 (immunoblot with acetyl-lysine-specific antibodies): the catalytically inactive SIRT3-H248Y mutant did not deacetylate AceCS2, despite the presence of NAD^+
  in vitro deacetylation of hyperacetylated AceCS2 with NAD^+: No deacetylation of AceCS2 was observed when NAD^+ was omitted from the reaction, or when a catalytically inactive SIRT3 mutant (H248Y) was used
  time course of AceCS2 deacetylation: could not be observed with the inactive SIRT3-H248Y mutant

B3: Flag-tagged SIRT3 (SIRT3^Flag, expressed in HEK293 or COS-1 cells) (protein)
chain: B1 chain
[2]
  in vitro deacetylation of AceCS2 (immunoblot with acetyl-lysine-specific antibodies): immunoprecipitated Flag-tagged SIRT3 deacetylated AceCS2 in a NAD^+-dependent manner

B4: Flag-tagged SIRT5 (SIRT5^Flag, expressed in HEK293 or COS-1 cells) (protein)
chain: SSSMADFRKFFAKAKHIVIISGAGVSAESGVPTFRGAGGYWRKWQAQDLATPLAFAHNPSRVWEFYHYRREVMGSKEPNAGHRAIAECETRLGKQGRRVVVITQNIDELHRKAGTKNLLEIHGSLFKTRCTSCGVVAENYKSPICPALSGKGAPEPGTQDASIPVEKLPRCEEAGCGGLLRPHVVWFGENLDPAILEEVDRELAHCDLCLVVGTSSVVYPAAMFAPQVAARGVPVAEFNTETTPATNRFRFHFQGPCGTTLPEALACHENETVS
[2]
  in vitro deacetylation of AceCS2 (immunoblot with acetyl-lysine-specific antibodies): it failed to deacetylate AceCS2

B5: Flag-tagged SIRT4 (protein)
chain: IGLFVPASPPLDPEKVKELQRFITLSKRLLVMTGAGISTESGIPDYRSEKVGLYARTDRRPIQHGDFVRSAPIRQRYWARNFVGWPQFSSHQPNPAHWALSTWEKLGKLYWLVTQNVDALHTKAGSRRLTELHGCMDRVLCLDCGEQTPRGVLQERFQVLNPTWSAEAHGLAPDGDVFLSEEQVRSFQVPTCVQCGGHLKPDVVFFGDTVNPDKVDFVHKRVKEADSLLVVGSSLQVYSGYRFILTAWEKKLPIAILNIGPTRSDDLACLKLNSRCGELLPLIDPC
[2]
  in vitro deacetylation of AceCS2: did not deacetylate AceCS2 (data not shown)
